The text below walks through data of paper PMC8247607.

As usually defined, the Kd is the constant that tells how readily two partners part at equilibrium. Read a high Kd as weaker binding.

This series has as its target T1, MSL2 CXC domain (CXCvir) (Drosophila virilis, UniProt O76733 514-567).
T1 sequence: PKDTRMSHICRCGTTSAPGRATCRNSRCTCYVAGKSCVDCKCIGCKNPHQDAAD
As to the kind of experiment: NMR 1H-15N HSQC titration.

B1: S12 (dsDNA)
DNA 1: ATGAGCGAGATG
DNA 2: CATCTCGCTCAT
B1 had a Kd of 2.8 µM.

B2: S12 mutant (dsDNA)
DNA 1: ATGAAAAAAATG
DNA 2: CATTTTTTTCAT
With B2, the affinity, expressed as Kd, was 2.4 µM.
